What was measured:
[1] = molecular target: human macrophage migration inhibitory factor (MIF) (human) (UniProt P14174); experiment: cell-based or functional assay
CD80 = CD80 (UniProt P33681); experiment: comparator antibody, sub-head 'Kd'; method and antigen not stated
CD23 = CD23 (UniProt P06734); experiment: as above
Chain of CD23 (P06734 48-321 limits assumed): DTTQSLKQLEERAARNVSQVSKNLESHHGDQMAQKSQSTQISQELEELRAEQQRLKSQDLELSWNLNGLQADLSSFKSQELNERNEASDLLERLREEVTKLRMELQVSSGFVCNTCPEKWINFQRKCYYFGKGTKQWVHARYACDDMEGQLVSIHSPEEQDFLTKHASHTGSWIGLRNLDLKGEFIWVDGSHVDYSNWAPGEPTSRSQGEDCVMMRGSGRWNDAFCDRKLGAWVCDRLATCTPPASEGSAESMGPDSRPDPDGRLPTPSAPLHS

Chain of CD80 (P33681 35-242 limits assumed): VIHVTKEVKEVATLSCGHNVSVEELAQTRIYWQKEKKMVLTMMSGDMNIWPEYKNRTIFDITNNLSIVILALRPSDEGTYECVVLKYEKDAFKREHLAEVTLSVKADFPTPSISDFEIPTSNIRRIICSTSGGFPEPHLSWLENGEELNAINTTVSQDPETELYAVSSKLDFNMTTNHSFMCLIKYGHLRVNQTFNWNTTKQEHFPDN
Chain of human macrophage migration inhibitory factor (MIF) (human) (P14174 2-115 limits assumed): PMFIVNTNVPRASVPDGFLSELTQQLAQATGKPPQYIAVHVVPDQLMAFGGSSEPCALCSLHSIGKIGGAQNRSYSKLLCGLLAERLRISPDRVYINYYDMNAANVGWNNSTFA

2B8 (murine anti-CD20 Mab) (antibody)
% MIF PPT Activity [1]: 105%

IDEC-114 (anti-CD80 mab) (antibody)
Kd (CD80): 2.2 nM

IDEC-152 (anti-CD23 mab) (antibody)
Kd (CD23): 1.2 nM
